Laboratory results from the domain aggregation screens of Martell et al. (2025).

Assay: soluble fraction after stress (log2 fold change); higher = more stays soluble; pooled small domains, quantitative proteomics
Details: stress: pH 4
How it was run: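 With high-throughput quantitative proteomics, pooled custom libraries of small protein domains were measured after pH 4 stress. Each domain's soluble amount after the stress gives a fold change taken as aggregation propensity. Higher log2 values mean more of the domain stayed soluble.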

| Sequence | soluble fraction (log2) |
| --- | --- |
| HMPSLILADEPTGNLDSRNSSEVIALLKNASKRYAQTIIMITHNRSIAQSADRVLQVSDGVLTDMG | 0.0603 |
| HMPSLNDRPDDVLYLFSYFLQSFSHRQVSLPKILKKALIQHDWWGNIRELHSVALRYYIFGDTLNGAYDSL | -0.895 |
| HMPSLSREREAAILEMIERRPSTAEDVASGLGLAVNEVIKLLDGTALRGSVETFQSGEEIYYTRKR | -0.294 |
| HMPSNVKIPDVTGKTVAQARSAIEAAGLKVGKEKDEYSDSAKKDSVIRTNPQAGTQRREGSTVDLIVS | 0.22 |
| HMPSPFYIMDEVEAALDDTNLGRLITLFEELRDSSQLIVITHQKKTMEIADALYGVTMRGDGITTVVSQRL | -2.24 |
| HMPSQEQSDKNAAMAFLPVIVKNALNGKGLKISDDWKAAVNTALAQYPLVNKFFNADSPEVTELVMGL | 0.0187 |
| HMPSQLPLAFARRHGVLLRGFSNGLAQLTVRPEVSTLSLAETRRHLGVPLALEKVTTERFDQLLREAYEA | -0.152 |
| HMPSYYKELQNYSPENPVVKKRKVHPDVVNAIKYLAEITDGNPMLIKAYAQMILAHVFTTMPLIDKSV | 0.22 |
| HMPTEAIVLQQIQIRQSPSGNSKSLQQILPGAKIKITSESSVKGWKQVSLDGGQKGWIPTAAIGL | 0.302 |
| HMPTELVYTVPASAEGLRLDHFLVQHVPHMTRALATELTGAGGVRVNGRRAKKGDRLPSGAEVRLER | 0.286 |
| HMPTFAEKLHEVRKARDFTQDQLAKEMNVSRQTISHWENGRAVPDIDTIKHLSQVLDYNFLV | -0.171 |
| HMPTITIQRGIILSSTTKGFIDELSHSQIKNAIVERLGEHHVMIHESQLDAVIKYAQKKEAVINIYL | -0.0875 |
| HMPTMEQTYIGRTMIAEEDMGKNSKIKVSGIYWTAYNKGRVIKKGEEYKITGIEGNKLIVSSK | 0.179 |
| HMPTNSDRLIGSDGVVSSKIDNLQGTGKVYISGLTWSARTIDGSEAEEGDIVTVEKIEGATLYVTKR | -0.293 |
| HMPTNVYSIIGKEGIVLESIDNLNSTGKVKVNGELWSAISDSNIEKGETIKVLSVNGVKLKVEKVN | -0.0569 |
| HMPTPASGSSGYINATNVNFRTGPATSYKSISKLAKNTAVTILGTSGNWYKVTVGSLGKNGYVFATYVTVS | -0.332 |
| HMPTPLTPREHEIANLIAQGLSNREIADELVISPATAARHVANILAKLGFSSRTQVASWATRHD | -0.237 |
| HMPTSLPGIDIDEKNIVSSTGALSFKKVPKKLAIIGGGYIGLEMGSVWSRLGSSVTVIEYLNFITPG | -0.172 |
| HMPTTLEGIEKYLSSGLIKGIGPHLAGKLVEAFGTRVFEVVEHQPERLRTVGGIGRTRAESITSAWRDQ | -0.141 |
| HMPTTNIRAFRLREADPESVKEALSMVMPKTSIYVDARTKSVLVVGLLDELARAAEIVALIDQP | -1.13 |
| HMPVFSAEQVAKAEADVQKVANKVQEAGADVEKLTTIHNWLLAREKYMPPDLFSTANQIIATAFQKAG | 0.279 |
| HMPVGSIGERLKALRLKAGLTQEEVGQHVHISKQTLYKYENGIVTNIPADKIELLATIYSVTPAYIMGWA | -0.118 |
| HMPVQPMDPSIEHISALTGKQFQAFPGQDHRAHMTAHLNFMSTNIVRNNPAVMGAIQKNILEHISLMAQEQ | -0.0918 |

| Sequence | soluble fraction (log2) |
| --- | --- |
| HMPVSLHEQIQQARIRAEQNVEGISLLLQVNPKYYEQIEAGDVIPDQDLLKRISSLFGWNYHEMLHREKSS | -0.487 |
| HMPVSTLLGDNLRRLRTAKGYTQEAVADAARISVAAYRNYETGRAIPKVNTLLAIARALGVSLNDLVTE | -0.00358 |
| HMPVTAQFDFSKVLAGRTLKDGEFSFVLKDKNGTVLQTKTNDASGKVAFDALIYKNNEVGEHKYTVEEVI | 0.294 |
| HMPVVKIPFILTEGPSSITKVIEIDADEILELKDVFQEDDKLWSINQIEMNDGRYVKHSDASLIVRASALR | -0.183 |
| HMPYHSEAWHKVMKSHWLTLSREEAYMHEGRTGASTINIVFQRELGREATQEEIESIYQEKSVLFNSYP | -1.37 |
| HMPYLVNGFILEVQSDDNNPVGTLKRRYAVAKNKQGVILLEGEKSFSSNDQILINELKFYIQSNDLKA | -1.39 |
| HMPYSKIALQISHLLKSHGVPLSNKQIYEKLINDFQLSINYSNLTNNILPRMNSDSSINVEKVTRGYWQY | 0.22 |
| HMQADKYKSYTATDFLKDKDFLRWQLFNGEEDMLFWGRVIEEYPALRSRVEEGIVLYKDNIR | -1.18 |
| HMQADTATITGNGVNMRSGPGTNYQIIDTIPKGTVAEVLSQQDGWVKIYSARISGWVSASYVEIKQT | 0.18 |
| HMQAGNAVEQYPTIGRLEEVTLGRSQPGAPIGERLSTLETVVFKRNFNDDSLFDRTERLKKTILGG | -0.0794 |
| HMQAKQVAIPDVANYSVTDAIKKLQDAGFIVSDEQREEANETVSEGKVSRTSPAAGSIRKEGTEIILYKSL | 0.279 |
| HMQALDETTVSRIRQKAAARNLLLKVLAGQLGVARPTLSNVLARREAPSAALAARIRAFLDSP | 0.159 |
| HMQALTLVGQDAKDAKAALDAVDIQPAKTETDRYIYVLTEQQAQELGRTVDALYGVEGSLTLILEV | -0.207 |
| HMQAQQYYMLLMNKATSALKIEALGANSNKAHQSFGTKTAGGSAVYWGILFNSNGKIYKIVG | -0.15 |
| HMQASIPQSQKDALAKELQALPPHGRNRVLSTFRQQFNISSEKISEFITTPEHLSFIRSKIAEVESDS | -0.529 |
| HMQDENAVTYLLEIKNADANDIASVLKTLKSPDADVVVYKTLNMIIFTGQGSEINGLVKVARQLDRK | -1.3 |
| HMQDGVNLENIEQKLSTLGVGKAQYFLQNVGGNKFNAYMALNTDGVEGYQKGSDTLIEIKNVE | 0.0934 |
| HMQDKIWVVDETQLYPKLIEAMSEGKAVIHDGVAYWAEGSGKTGVIQHLPFKETTVQNVEEAIKLAQ | -0.543 |
| HMQDKLLRKKEVLEMVSITNSTMYRMIGSGQFPRPIRLDNANINSGVRWKLSEINTFIEQRF | -0.893 |
| HMQDLAKRWVEEFGDLLYKYTLPRVSDSGIAKDLVQETFLAAWRNIDNFKGEASEKNWLFTILKNKIIDH | -0.585 |
| HMQDLTAQQQAILSFLKEHPKATRKEISENIPNITEDNIRYNLSQLQELGFVKSMGDSFIRIAI | 0.216 |
| HMQDNDLKNQIENVLRTYPDNVFTVEKIADVLRSHGSAAFKLIVQELASLERDKVAVVTEDGKFQLNPD | 0.339 |
| HMQDPTAVISRVLEERKHQPGALLPILHGIQDALGYVPREAVAQIAQALNLSRAEIHGVVSFYHHFR | -0.311 |

| Sequence | soluble fraction (log2) |
| --- | --- |
| HMQDPVWVDWLGENDWFQKDPKRRGLANGYSEILRAEQPELVGRPFLDEVTRRVQADFPELFG | -1.33 |
| HMQDTRSHARKMLAAIEALLEGRSGSDIQAYTIHNRSITKMTVPELVKWRSYYQQQVRSEDAAASLA | 0.206 |
| HMQDTYLYPVQHNGKVRLQVELPAKGLPEDLVRLALAHPKVVEWLNGRIPTKTIAVPGRIINMVLPNQ | 0.18 |
| HMQDVWEPFLAKGYVFADGMLTKLIHKRGDVYKTQEIGSDKIIYVIKDGDTFAHGKTVKAAMLDLAFKKS | -0.392 |
| HMQDYISAEEAKSAALSASQVDSAGAAFSAAELGEKNGIPYYEVAFTADGLEYRYAIDAQTGTVIESSSSG | -0.164 |
| HMQEDKVRKLTEMGFAEDQAREALRKHDWDETMALNSL | -0.244 |
| HMQEDSNISFVKIHVDADSGMAHKKLSKLSLPTGFLIVVIIRGEENIIPNGETEVLPGDLLVAAAREFEN | -0.811 |
| HMQEEELYPRLEEVINQHRGKGEDLIMVLHKAQNLFGYLPRRAQEMVAEGLNVSLNEVYGVITFYNFFST | -0.342 |
| HMQEERDISFIKIHLEPGHPWRGRALRELMPLKDLLIVMVVRGEDTIVPNGDTRLEEGDLLVLAAYPFEE | -2.57 |
| HMQEHAHLWRLMEDNRSFKADYIAFENGIVLLQNLSSGKISQYPITDFSIEDQLLILKRHELTAHINAN | -0.0419 |
| HMQEIKPEPISDGRVWKEGMWATTPLGIEGQLLSDPDEKGMVQLGYGNMRININIQDLDPSR | -0.207 |
| HMQEISQEEALATVLKDLSLTEADLKDLQITREEDKYKILFSKGQTAYDVLVSAKDGQLLQSKQETI | -0.359 |
| HMQEKQIIDGREFYIHQVERGITLYSIAKQYNVKVADIQAENPFLEAGLQPGQTLKIPLDKVETVQEIK | -0.17 |
| HMQEPIAVPDFINKSAVDVLVNPVFTQNFKLVSEDVYDDKVPEGYIVGQSVKSDTLVQPGTEIVIYV | 0.0962 |
| HMQEPNYQPLMQNIKSQDLEEVTRLLSLNDVKFKIDHRTGLLLVESSRVYEAKMKLAATGITD | -1.15 |
| HMQEPVHFTRRERQVLSLILSGQATAEIAKTLGIANATVTTYKKSLYSKSGTNSLSRLLIWAMVRR | -0.332 |
| HMQEPVYRPVFPGMTDADRQSAMEALKEGGFSPRLNRQTGQLEVDASGYHEAKIYLASQGIPAE | 0.22 |
| HMQERNYIVRRGDTLWDLAKTYYGSGTKYTVIYDANRDNIEAEAKRRGKQSSNGGYWIYPGTELTI | -0.0819 |
| HMQERTVVKGVVVQVSRDEAYVDIGYKQEIPVSKRDLAVPAPDDARDVVKVGDEIDVYIKSLGGDNGG | -0.0346 |
| HMQESTPGEGYKWREDVLLRVMSQNGIDESLRDEFVRHAVNYDIDDNMYLKKAEIESAAEAWVLENS | -1.92 |
| HMQESVTVSAQALRRLLEKGDGDAALLYLALLRHHGTIQPRALAGELRWERPRIEAAEEALRQMGLIA | 0.121 |
| HMQETMTNDEVISLTKAGLSSSIIIGKIRSSATNFDLSTDSLIKLKQAGVSDETVAAMLEAKS | 0.181 |
| HMQGAARGMLFAQAQRWMTKFRIDPQQADRITQAALDPAQTDAILREVRRGYGPSAERALRGIIRRARRA | 0.259 |
